First the molecules themselves.
B1: IgG1-F81 (antibody)
heavy: QVQLQESGPGLVKPSETLSLTCAVSGHSISHDHAWSWVRQPPGEGLEWIGFISYSGITNYNPSLQGRVTISRDNSKNTLYLQMNSLRAEDTAVYYCARSLARTTAMDYWGEGTLVTVSSASTKGPSVFPLAPSSKSTSGGTAALGCLVKDYFPEPVTVSWNSGALTSGVHTFPAVLQSSGLYSLSSVVTVPSSSLGTQTYICNVNHKPSNTKVDKKVEPKSCDKTHTCPPCPAPELLGGPSVFLFPPKPKDTLYISREPEVTCVVVDVSHEDPEVKFNWYVDGVEVHNAKTKPREEQYNSTYRVVSVLTVLHQDWLNGKEYKCKVSNKALPAPIEKTISKAKGQPREPQVYTLPPSRDELTKNQVSLTCLVKGFYPSDIAVEWESNGQPENNYKTTPPVLDSDGSFFLYSKLTVDKSRWQQGNVFSCSVMHEALHAHYTQKSLSLSP
light: not shown
notes: EU numbering; copies: 2 + 2
B2: IgG1-F130 (antibody)
heavy: B1 heavy with E258T, V310M, A436Y
light: not shown
notes: EU numbering; label printed 'F130' between F149 and F152 (perhaps F150); copies: 2 + 2
B3: IgG1-F134 (antibody)
heavy: B1 heavy with Y254M, E258T, P259N, M430L, A436Y
light: not shown
notes: EU numbering; copies: 2 + 2
B4: IgG1-F99 (antibody)
heavy: B1 heavy with A436H
light: not shown
notes: EU numbering; copies: 2 + 2
B5: IgG1-F109 (antibody)
heavy: B1 heavy with E258T, V310P, Q313A, A436Y
light: not shown
notes: EU numbering; 'M4252Y' read as M252Y; copies: 2 + 2
B6: IgG1-F85 (antibody)
heavy: B1 heavy with Y254W, E258Q, A436Y
light: not shown
notes: EU numbering; copies: 2 + 2
B7: IgG1-F108 (antibody)
heavy: B1 heavy with E258T, V307A, V310P, A436Y
light: not shown
notes: EU numbering; copies: 2 + 2
B8: IgG1-F112 (antibody)
heavy: B1 heavy with E258T, V310P, E382A, A436Y
light: not shown
notes: EU numbering; copies: 2 + 2
B9: IgG1-F122 (antibody)
heavy: B1 heavy with M430L, A436W
light: not shown
notes: EU numbering; copies: 2 + 2
B10: IgG1-F106 (antibody)
heavy: B1 heavy with E258T, V305A, V310P, A436Y
light: not shown
notes: EU numbering; copies: 2 + 2
B11: IgG1-F104 (antibody)
heavy: B1 heavy with E258T, D267A, V310P, A436Y
light: not shown
notes: EU numbering; copies: 2 + 2
B12: IgG1-F113 (antibody)
heavy: B1 heavy with E258T, V310P, E384A, A436Y
light: not shown
notes: EU numbering; copies: 2 + 2
B13: IgG1-F101 (antibody)
heavy: B1 heavy with Y254W, E258Q, P259L, A436Y
light: not shown
notes: EU numbering; copies: 2 + 2
B14: IgG1-F88 (antibody)
heavy: B1 heavy with S256T, E258Q, A436W
light: not shown
notes: EU numbering; copies: 2 + 2
B15: IgG1-F107 (antibody)
heavy: B1 heavy with E258T, V310P, D378A, A436Y
light: not shown
notes: EU numbering; copies: 2 + 2
B16: IgG1-F86 (antibody)
heavy: B1 heavy with Y254M, S256T, E258Q, A436W
light: not shown
notes: EU numbering; copies: 2 + 2
B17: IgG1-F124 (antibody)
heavy: B1 heavy with M430L, A436Y
light: not shown
notes: EU numbering; copies: 2 + 2
B18: IgG1-F95 (antibody)
heavy: B1 heavy with S256T, M430L, A436F
light: not shown
notes: EU numbering; copies: 2 + 2
B19: IgG1-F132 (antibody)
heavy: B1 heavy with Y254M, E258T, P259I, M430L, A436Y
light: not shown
notes: EU numbering; copies: 2 + 2
B20: IgG1-F105 (antibody)
heavy: B1 heavy with E258T, T309A, V310P, A436Y
light: not shown
notes: EU numbering; copies: 2 + 2
B21: IgG1-F111 (antibody)
heavy: B1 heavy with E258T, V310P, K319A, A436Y
light: not shown
notes: EU numbering; copies: 2 + 2
B22: IgG1-F84 (antibody)
heavy: B1 heavy with Y254W, E258Q, A436W
light: not shown
notes: EU numbering; copies: 2 + 2
B23: IgG1-F120 (antibody)
heavy: B1 heavy with Y254M, E258T, P259L, V310P, M430L, A436Y
light: not shown
notes: EU numbering; copies: 2 + 2
B24: IgG1-F114 (antibody)
heavy: B1 heavy with E258T, V310P, S426A, A436Y
light: not shown
notes: EU numbering; copies: 2 + 2
B25: IgG1-F129 (antibody)
heavy: B1 heavy with Y254M, E258T, P259A, M430L, A436Y
light: not shown
notes: EU numbering; copies: 2 + 2
B26: IgG1-F121 (antibody)
heavy: B1 heavy with V310P, M430L, A436W
light: not shown
notes: EU numbering; copies: 2 + 2
B27: IgG1-F125 (antibody)
heavy: B1 heavy with S256T, V310P, M430L, A436Y
light: not shown
notes: EU numbering; copies: 2 + 2
B28: IgG1-F87 (antibody)
heavy: B1 heavy with Y254M, S256T, E258Q, A436Y
light: not shown
notes: EU numbering; copies: 2 + 2
B29: IgG1-F93 (antibody)
heavy: B1 heavy with Y254W, E258T, M430L, A436W
light: not shown
notes: copies: 2 + 2
B30: IgG1-F89 (antibody)
heavy: B1 heavy with S256T, E258Q, A436Y
light: not shown
notes: EU numbering; copies: 2 + 2
B31: IgG1-F133 (antibody)
heavy: B1 heavy with Y254M, E258T, P259M, M430L, A436Y
light: not shown
notes: EU numbering; copies: 2 + 2
B32: IgG1-F123 (antibody)
heavy: B1 heavy with V310P, A436Y
light: not shown
notes: EU numbering; copies: 2 + 2
B33: IgG1-F128 (antibody)
heavy: B1 heavy with Y254M, E258T, P259L, M430L, A436W
light: not shown
notes: EU numbering; copies: 2 + 2
B34: IgG1-F103 (antibody)
heavy: B1 heavy with P240A, E258T, V310P, A436Y
light: not shown
notes: EU numbering; copies: 2 + 2
B35: IgG1-F90 (antibody)
heavy: B1 heavy with V310P, A436W
light: not shown
notes: EU numbering; copies: 2 + 2
B36: IgG1-F131 (antibody)
heavy: B1 heavy with Y254M, E258T, P259G, M430L, A436Y
light: not shown
notes: EU numbering; copies: 2 + 2
B37: IgG1-F91 (antibody)
heavy: B1 heavy with E258T, V310P, M430L, A436Y
light: not shown
notes: EU numbering; copies: 2 + 2
B38: IgG1-F92 (antibody)
heavy: B1 heavy with S256T, V310P, M430L, A436W
light: not shown
notes: EU numbering; copies: 2 + 2
B39: IgG1-F94 (antibody)
heavy: B1 heavy with Y254M, E258T, P259L, M430L, A436Y
light: not shown
notes: copies: 2 + 2

Usually Kd stands for the equilibrium constant for the complex coming apart. Read a high Kd as weaker binding.

Numbering of substitutions follows the chain as printed. Numbers in names are those of the source.

This experiment deals with T1, human FcRn (soluble human FcRn complexed with β2-microglobulin) (human, UniProt P61769 21-119, limits assumed).
T1 construct: also called hFcRn
T1 sequence (chain, as listed by the source limits assumed, chain 1 of 2): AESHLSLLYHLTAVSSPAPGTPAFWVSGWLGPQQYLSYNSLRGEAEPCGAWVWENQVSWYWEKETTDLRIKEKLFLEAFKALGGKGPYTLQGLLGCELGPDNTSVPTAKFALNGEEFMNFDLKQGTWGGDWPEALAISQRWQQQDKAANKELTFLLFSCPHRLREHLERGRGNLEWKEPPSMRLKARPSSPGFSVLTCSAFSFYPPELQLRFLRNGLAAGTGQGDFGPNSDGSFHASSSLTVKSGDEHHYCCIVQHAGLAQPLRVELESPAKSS
T1 sequence (P61769 21-119 limits assumed, chain 2 of 2): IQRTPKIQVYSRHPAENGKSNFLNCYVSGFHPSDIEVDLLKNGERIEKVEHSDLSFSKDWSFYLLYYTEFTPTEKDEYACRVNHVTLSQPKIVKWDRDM
Put plainly: SPR, pH 7.0.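 Note: antibodies captured on a Protein L sensor chip with human FcRn injected as analyte, KD calculated from fitted association and dissociation rate constants.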 In general terms: In SPR one partner is held on a chip, and binding of the other changes the refractive index at the surface.
For B1, the Kd amounted to 1600 nM.
In turn, B2 had a Kd of 200 nM. Against the preceding molecule, the Kd is about 8-fold lower.
B3 gave a dissociation constant (Kd) of 270 nM.
Then B4, with 620 nM.
With B5 the figure was 32 nM.
Then B6, with 550 nM.
Molecule B7 came in with a dissociation constant (Kd) of 41 nM.
With B8 the figure was 64 nM; with B9, 120 nM; with B10, 37 nM.
With B11 the figure was 37 nM.
With B12 the figure was 32 nM; with B13, 110 nM; with B14, 190 nM.
On to B15, for which the Kd turned out to be 34 nM.
With B16 the figure was 1500 nM.
Consider B17, for which the Kd amounted to 290 nM.
Then B18, with 260 nM; and B19, with 210 nM.
B20 gave a Kd of 75 nM.
Then B21, with 32 nM.
Then B22, with 280 nM; and B23, with 63 nM; and B24, with 38 nM.
As to B25, binding was put at a Kd of 220 nM.
Then B26, with 15 nM.
Then B27, with 24 nM.
With B28 the figure was 4300 nM; with B29, 740 nM; with B30, 360 nM.
For B31, the affinity, expressed as Kd, was 410 nM.
With B32 the figure was 30 nM; with B33, 170 nM.
Then B34, with 44 nM; and B35, with 19 nM.
With B36 the figure was 3000 nM; with B37, 48 nM.
For B38, the Kd was 11 nM.
For the molecule B39, the dissociation constant Kd stood at 370 nM. Compared with the last molecule, the Kd is about 34-fold higher.
